Assay results taken from the supplement of paper PMC9170038.

Tested on: MS2 coat protein
Experiment: apparent KD of MS2 coat protein; higher = weaker reporter binding
Settings: Eterna round: R107
In short: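 Designed RNA switches were transcribed on-chip from Illumina sequencing clusters. SNAP-549-labelled MS2 coat protein was titrated onto them in twofold steps from 0.7 or 1.5 nM to 3 µM in 100 mM Tris-HCl pH 7.5, 80 mM KCl, 4 mM MgCl2, either without or with constant ligand. Apparent KD reflects the per-design median of normalised cluster binding-curve fits.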

[1] = input ligand: theophylline 20 uM
[2] = input ligand: theophylline 2 mM
[3] = input ligand: tryptophan 2.4 mM

Sequence | apparent KD of MS2 coat protein (input ligand: arginine 13.2 mM) | apparent KD of MS2 coat protein (input ligand: none) | apparent KD of MS2 coat protein [1] | apparent KD of MS2 coat protein [2] | apparent KD of MS2 coat protein [3]
GAUAGAACAAAAGUUUUAUCAGUGGGUGAACGAGGACCGGUACGGCCGCCACUCGGACAUGAGGAUCACCCAUGUCCAUGUGAAA [AstrosExyTryA#17] | 12.6 nM | 18.1 nM | 17.1 nM | 19.5 nM | 43.9 nM
GAUAGUUGAUGGGAUACCAGCGUGCACAUGAGGAUCACCCAUGUGGUUCGUGUACGACGGCGCCCUUGGCAGCCCAUAUUGUGUA [#13 Same State - Theophylline B] | 58.2 nM | – | 116 nM | – | 181 nM
GAUAUGGAAACAUGUCAGAUCCUUACCGGUCGAGGACCGGUACGGCCGCCACUCGAAAAUAAUAAACAUGAGGAUCACCCAUGUA [Ex Tryptophan A 16] | 17 nM | – | 18.8 nM | 17.5 nM | –
GAUGAACUAUUUGAUACCAGACAACAUGAGGAUCACCCAUGUGCGCGUCGUCCUCUGCCUGUCCCUUGGCAGCAAAUAGUUUAUC [XTheo B #10] | 52.6 nM | – | 81.8 nM | – | 36.6 nM
GAUGGAAUAAGAGAUACCAGACACAAUUUAGCAUGUAUAUACAUGAGGAUCACCCAUGUAGUCCCUUGGCAGCUCUGGUUAGUGU [theeternabot_exclusion_MS2_Theo_B_48] | 21.4 nM | – | 27.7 nM | – | 20.8 nM
GCAAUAACGAUUGAUACCAGCAUGUUAACAUGAGGAUCACCCAUGUUAAGGAUAACAUAAUGCCCUUGGCAGCAACGGAAAGCCG [Ac] | 16.8 nM | – | 22.9 nM | – | 18.5 nM
GCACCAGGUACGGAUACCAGAGCAAGCCAAAUGAGUGACCAUGAGGAUCACCCAUGGUUGCUCCCUUGGCAGCCGUACCUGGUGC [ETB NP+V+V2 #13 Diff Apt, +-Same Structure] | 7.28 nM | 12 nM | 12.1 nM | 79 nM | 10.9 nM
GCACGACAUGAGGAUCACCCAUGUGCCGAUACCAGCCGGAUAUACGGCCCUUGGCAGCGGAGUGGAUCCGGAGGACCAUGGGUAA [Same State Theophylline A GF7] | 2.16 nM | 236 nM | 156 nM | 250 nM | 92.5 nM
GCAGACAUGAGGAUCACCCAUGUACUUGGGCGAGGACCGGUACGGCCGCCACUCGUAGACUUGACGAGGAAAUGUUCUCGCAGGG [theeternabot_sameState_MS2_Trp_A_24] | 22.1 nM | – | 31.6 nM | 28.4 nM | –
GCAUCCUAGUCGGCCGCCACUGGUACGAACACCUUCACCCGUGUGCACAUGAGGAUCACCCAUGUUAGGACCGGGACUAGGAUGC [SSTryp B #21] | 10.3 nM | – | 11 nM | 8.45 nM | –
GCAUCCUAGUCGGCCGCCACUGGUAUCAACACCUUCACCCGUGUGCACAUGAGGAUCACCCAUGUUAGGACCGGGACUAGGAUGC [SSTryp B #19] | 8.01 nM | – | 12.5 nM | 9.55 nM | –
GCCGCGGCCGCGAUACACAUGGGUGUGUAACGAGGACCGGUACGGCCGCCACUCGAGAUGAUGUACAUGAGGAUCACCCAUGUAC [Exclusion Tryp A GF13] | 11.8 nM | 11.6 nM | 15.4 nM | 11.9 nM | 13.9 nM
GCCGCGGCCGGAAUAAACAUGGGUAAAUAACGAGGACCGGUACGGCCGCCACUCGAGAUAAAUAACAUGAGGAUCACCCAUGUAC [Exclusion Tryp A GF11] | 43 nM | – | 111 nM | 123 nM | –
GCGCGCGCCGAAAGGCGCGCGUGUUGCGAUACCAGCCCGGAAACGGGCCCUUGGCAGCGCACAUGAGGAUCACCCAUGUCAUGUU [Exclusion - Theophylline A Attempt #1 (HarryS)] | 14.9 nM | 17.9 nM | 27.1 nM | 24.5 nM | 21.9 nM
GCUACGUGCUGAAGGAGCGUGGACCUAAACAUGAGGAUCACCCAUGUCGUGUAGGCAGAUUCACAGGUAGGUCGCAGCACGUAGC [SSAB NP+V+V2 #14 Same Structure] | 61.2 nM | 92.2 nM | 123 nM | 120 nM | 99.7 nM
GCUGUAAGUGCAGAUACCAGCAAGUGAGGUUUCAUAUGACAUGAGGAUCACCCAUGUAUCUGCCCUUGGCAGCUGCACUUACAGC [#28 Same State - Theophylline B] | 17 nM | – | 24.2 nM | – | 21.7 nM
GCUUAGAAACCUGAUACCAGUCAGCCCUAUGACAUGAGGAUCACCCAUGUGAUACUCACGGACCCUUGGCAGCAGGGUCGAUUAC [theeternabot_sameState_MS2_Theo_B_17] | 231 nM | – | 812 nM | – | 1000 nM
GCUUGGGUCGCAAGGCCCUGGCGUUGCGAUACCAGCACGGUAACGUGCCCUUGGCAGCGCACAUGAGGAUCACCCAUGUGGUGCG [#1 Exclusion - Theophylline A Attempt #22 (HarryS)] | 16.5 nM | 18.3 nM | 27.8 nM | 229 nM | 17.4 nM
GGACCAUGGAGCGAUACCAGCUUGAGUGUGCUGGCCAGGCACAUGAGGAUCACCCAUGUAAGCCCUUGGCAGCGCUCCAUGGUCC [#1 Exclusion - Theophylline B Attempt #26 (HarryS)] | 7.45 nM | 8.39 nM | 13.3 nM | 13.5 nM | 10.6 nM
GGACGAAGUUUCUUGUCCGGUCGCUGAGAAGGAGCGCGGUAAACCGCAGGUAGGUCGCUCAGAAAUACAUGAGGAUCACCCAUGU [Orsosous] | 17.1 nM | 21.1 nM | 27.2 nM | 21.4 nM | 21.5 nM

Sequence | apparent KD of MS2 coat protein (input ligand: arginine 13.2 mM) | apparent KD of MS2 coat protein (input ligand: none) | apparent KD of MS2 coat protein [1] | apparent KD of MS2 coat protein [2] | apparent KD of MS2 coat protein [3]
GGACUAACCAGAAGGAGCGACACGCAGAAACUGCAAUUUCCUCCACACGAGGAUCACCCGUGUCAGGUAGGUCGCUGGUUAGUCG | 28.3 nM | 25.4 nM | 37.3 nM | 31 nM | 26.7 nM
GGACUAACCAGAAGGAGCGACACGCAGAAACUGCAAUUUCCUCUACACGAGGAUCACCCGUGUCAGGUAGGUCGCUGGUUAGUCG | 50 nM | 53.1 nM | 74.8 nM | 65 nM | 54 nM
GGACUAACCAGAAGGAGCGACACGCAGAAACUGCUAAAUCCUCCGCACGAGGAUCACCCGUGUCAGGUAGGUCGCUGGUUAGUCG [ArgBX 28] | 36.2 nM | 45.5 nM | 66.7 nM | 47.5 nM | 49.9 nM
GGACUAACCAGAAGGAGCGAUACGCAGAAACUGCAAUUUCCUCUACACGAGGAUCACCCGUGUCAGGUAGGUCGCUGGUUAGUCG | 25.2 nM | 26.9 nM | 35.2 nM | 29.7 nM | 26.7 nM
GGACUAACCAGAAGGAGCGGCACGCAGAAACUGCAAUUUCCUCCGCACGAGGAUCACCCGUGUCAGGUAGGUCGCUGGUUAGUCG | 21.8 nM | 20.4 nM | 27.5 nM | 24.5 nM | 25.4 nM
GGACUAACCAGAAGGAGCGGCACGCAGAAACUGCUAAUUCCUCCGCACGAGGAUCACCCGUGUCAGGUAGGUCGCUGGUUAGUCG [ArgBX 28] | 14.9 nM | 11.3 nM | 13.8 nM | 14.8 nM | 13 nM
GGACUAACUCGAAGGAGCGACACGCAGAAACUGCAAUUUCCUCCACACGAGGAUCACCCGUGUCAGGUAGGUCGCGAGUUAGUCG [ArgBX 29] | 20.8 nM | 21.8 nM | 26.3 nM | 28 nM | 19.8 nM
GGAUAGGACACGGCCGCCACUACCUAGGAUACUAGCAACAUUUGGGUACAAGAGGAUCACCCUUGUAGGACCGGGUGUCCUAUCG | 23.1 nM | 22.1 nM | 28 nM | 25.5 nM | 59 nM
GGAUAGGACACGGCCGCCACUAUCUAGGAUACUAGCAACAUUUGGGUAUAUGAGGAUCACCCAUAUAGGACCGGGUGUCCUAUCG | 138 nM | 214 nM | 330 nM | 303 nM | 471 nM
GGAUAGGACAGAAGGAGCGACAUGGCGACGAAAGUCGGACCUUCACAUGAGGAUCACCCAUGUCAGGUAGGUCGCUGUCCUAUCG [ArgXB 6 #MS2Gate #StaticStem] | 38 nM | 48.4 nM | 55.2 nM | 52.4 nM | 46.1 nM
GGAUCCAUCCGAAGGAGCGUCGGAAAUGGGUAAACAUGAGGAUCACCCAUGUAAAGGGAACGGCAGGUAGGUCGCGGAUGGAUCC [#25 Same State - Arginine B] | 132 nM | 99.1 nM | 167 nM | 157 nM | 195 nM
GGAUGAAACUGAAGGAGCGAGAACACAAGAAUGGGUCAAACAUGAGGAUCACCCAUGUAAUCUCAGGUAGGUCGCAGUAUCCCUU [Exclusion Arginine B GF 10] | 44 nM | 34.3 nM | 50 nM | 53.3 nM | 36.6 nM
GGCCCUGCGGGCGCCCGCAGGGCCGCGGAUACCAGCGAGGUCCAUCGCCCUUGGCAGCCGAACAUGAGGAUCACCCAUGUCGGUG [Same State - Theophylline A Attempt #8 (HarryS)] | 10.6 nM | 12.9 nM | 20.4 nM | 89.6 nM | 12.9 nM
GGCCGAUGGUGCGAUACCAGCUUGAGUGUACUGGCCAGGUACAUGAGGAUCACCCAUGUAAGCCCUUGGCAGCGCGUCAGAGGCC [#1 Exclusion - Theophylline B Attempt #21 (HarryS)] | – | – | 15.5 nM | – | 11.3 nM
GGCGCGCGCCAACAUGAGGAUCACCCAUGUCGAGGACCGGUACGGCCGCCACUCGAACGAGUGAAGCGCGCGCGCGGGCGACCGC [Saa] | 36.6 nM | 39.7 nM | 42.5 nM | 47.1 nM | 77.1 nM
GGCGUCGGGCGAAGGAGCGUGAAGACAUGAGGAUCACCCAUGUAGAGGCCCGGACAGGGUUCGCAGGUAGGUCGCGCGCGGUGCC [#1 Same State - Arginine B Attempt #7 (HarryS)] | 17.5 nM | 13.7 nM | 23.2 nM | 19.5 nM | 16.9 nM
GGCUGCGAUGGCGGAAAUUAUUUACAUAGGCGAGGACCGGUACGGCCGCCACUCGAACGUACAUGAGGAUCACCCAUGUGAUAAU [theeternabot_sameState_MS2_Trp_A_1] | 29 nM | – | 59.9 nM | 70.8 nM | –
GGGACUAGAUCGGCCGCCACUGAUGGGACAUGAGGAUCACCCAUGUACGAAGUGAUCCAAUAAAUCAGGACCGGGAUCACUUGUA [Tryp B Ex t6] | 64.3 nM | – | 137 nM | 173 nM | –
GGGCCCGUAAGCAGGCCCACAGCGGGUGAUACCAGCAAUAAAACUUGCCCUUGGCAGCACACAGCUACAUGAGGAUCACCCAUGU [Mausdi] | 24.3 nM | – | 59.3 nM | – | 88.6 nM
